Assay results reported in the nanobody polyreactivity screen of Harvey et al. (2022).

Test: yeast display, Sf9 membrane polyspecificity reagent, FACS + sequencing; frameworks hold sequencing errors
Summary of the method: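 Using colony PCR, genes from sorted yeast display clones were amplified, then sequenced on MiSeq at 2 × 250 and filtered by CDR length. The clones had been stained with 10% biotinylated, detergent-solubilized Sf9 membrane reagent for 1 hour at 4 °C and sorted by FACS into low and high (top ~1%) gates on anti-HA and streptavidin fluorescence. Polyreactivity labels come from the gate of origin.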

Sequence | polyreactivity (PSR sort gate)
QVQLVESGGGLVQAGGSLRLCCAAYGSIFARNSMGWYRHAPGKERELVAVITTGGRTYYADSVKGRFTISRDNAKNTVYLQMNSMKPEDTAVYYCATRVIYGNSGGYWGKGTQVTVSS | high polyreactivity
QVQLVESGGGLVQAGGSLRLICAASGFIFDSYAMGWYRQAPGKARELVAAISVNGGTTYYADSVKGRFTISRDNAKNTVYLQMISLKPEDTAVYFCNADLYYDVGQPMDYWGQGTQVTVSS | low polyreactivity
QVQLVESGGGLVQAGGSLRLICAASGFIFFSNAMGWYRQAPGKERELVAVIDRATSTYYADSVKGRFTISRDNAKNTFYLQLNSLKPEDTAVYYCNADGEEVYDFNYFLSFKGDYWGQGTQVTVSS | low polyreactivity
QVQLVESGGGLVQAGGSLRLICAASGFIFGKYVMGWYRQAAGKERELVAAITSSGGRTYYADSVKGRFTISRDNAKNTVYLQMNSLKPEDTGVYYCAARYVSYWPWFEYDYWGQGTQVTVSS | high polyreactivity
QVQLVESGGGLVQAGGSLRLICAASGFIFSYYAMGWYRQAPGKERELVAAISKTGGNTYYADSVKGRFTISRDYAKNTVYLQMNSLKPEDTAVYYCNALRGDWRDMGYWGQGTQVTVSS | high polyreactivity
QVQLVESGGGLVQAGGSLRLICAASGFIFWIYAMGWYRQAPGKEREFVAVITYRGDTTYYADSVKGRFTISRDNAKNTVYLQMNSLKPEDTAVYYCAAYTVQKYGYWGQGTQVTVSS | low polyreactivity
QVQLVESGGGLVQAGGSLRLICAASGFNLEYYSMGWYRQATGKERELVAVITESDGNTYYPDSVKGRFTISRDTAKNTVYLQMYSLKPEDTALYYCAAPYSFIQGGIRRGYHGYVYWGQGTQVTVSS | low polyreactivity
QVQLVESGGGLVQAGGSLRLICAASGFTFAKYAMGSYTQAPGKERQLVAGITGNSGTTYYADSVKGRFTISRDNAKNTVYLQMNSLKPEDTAVYYCAAEEVSWNGTGDYWGQGTQVTVSS | high polyreactivity
QVQLVESGGGLVQAGGSLRLICAASGFTFGYYAMGWYRQAPGKEREFVARISWSGDSTYYADSVKGRFTISRDNAKNTVYLQMTSLKPEDTAVYYCAARFTRQMYYWGQGTQVTVSS | high polyreactivity
QVQLVESGGGLVQAGGSLRLICAASGFTFLVNAMGWYRQAPGKERELVAAISSGGSTYYADSVKGRFTISRDNAKNTVYLQMNSLKPEDTAVYYCAAPTDFLFWEFDYWGQGTQVTVSS | low polyreactivity
QVQLVESGGGLVQAGGSLRLICAASGFTFSGNTMGWYRQAPGKERELVATISRTGGITYYADSVKGRFTISRDNAKNTVYLQMNSLKPEDTAVYYCNRRYYYFVYPDDYWGQGTQVTVSS | high polyreactivity
QVQLVESGGGLVQAGGSLRLICAASGFTFSYNAMGWYRPAPGTERELVAVITKSGGSTNYADSVKGRFTISRDNAKNTVYLQRNSLKPEDTAVYYCNRQIKKLLTTHYYWGQGTQVTVSS | high polyreactivity
QVQLVESGGGLVQAGGSLRLICAASGFTFTQYVMGWYSQAPGKERELVAAINWSGGNTYYAESVKGRFTISRDNAKNTVYLQMNSLKPEDTAVYYCAAYRHRNGYDYWGQGTQVTVSS | high polyreactivity
QVQLVESGGGLVQAGGSLRLICAASGFTFWDYTMGWYIQAPGKERELVAAITRSGGRTYYADSVKGRFTISRDNENNTFYLQMNSLKTEDTAVYYCAAKIWSKDEKHDYWGQGTQVTVSS | high polyreactivity
QVQLVESGGGLVQAGGSLRLICAASGFTFYRYAMGWYRPAPGKERELVAAITNIAGSTYYADSVKGRFTISRDNAKNTLYLQMNSLKPEDTAVYYCNANRLRRYDYWGQGTQVTVSS | high polyreactivity
QVQLVESGGGLVQAGGSLRLICAASGFTIGANTMGWYREAPGKERELVAAITSGGRTYYADSVKGRFTISRDNAKNTVYLQMNSLKPEDTAVYYCAAGRPRTIFQEYGSWGQGTQVTVSS | high polyreactivity
QVQLVESGGGLVQAGGSLRLICAASGIIFAYYAMGWYRQSPGKERELVAAITWSGGRTYYADSVKGRFTISRDNAKNTVYLQMNSLKPEDTSVYYCAARFTRQMYYWGQGTQVTVSS | high polyreactivity
QVQLVESGGGLVQAGGSLRLICAASGIIFDDYAMVWYRQAPGNERELVAAISVSGGSTYYADSVKGRFTISRDNAKNTVYLQMNSLKPEDTAVYYCAARLRWRYSYDYWGQGTQVTVSS | high polyreactivity
QVQLVESGGGLVQAGGSLRLICAASGIIFPSYAMGWYRQAPGKERELVAGISLSGGSTYYADSVKGRFTISRDNAKNTVYLQMNSLKPEDTAVYYCDTRNHYFRALRYGYWGQGTLVTVSS | high polyreactivity
QVQLVESGGGLVQAGGSLRLICAASGIIFQYYAMGWYRQAPGKERELVAAISWSGGSTYYADSVKGRFTISRDNAKNTVYLQMNSVKPEETAVYYCNAVYYSRIVGVRIYDYWGQGTQVTVSS | low polyreactivity
QVQLVESGGGLVQAGGSLRLICAASGIIFTRYAMGWYRQAPGKERELVAAISTRGGSTYYADSVKGRFTISRDNAMNTVYLQMNSLKPEDTAVYYCAATNAKDGEMDYWGQGTQVTVSS | high polyreactivity
QVQLVESGGGLVQAGGSLRLICAASGIIFVGYAMGWYRQAPGKERELVAAIDGTGDSTYYADSVKGRFTISRDNAKNTVYLQMNSLKPEDTAVYYCDAEYDYRWWYGYDYWGQATQVTVSS | high polyreactivity

Sequence | polyreactivity (PSR sort gate)
QVQLVESGGGLVQAGGSLRLICAASGIIFVSNAMGWYRQAPGKERELVATINWSDDSTYYADSVKGRFTISRDNAKYTVYLQMNSLKPEDTAVYYCNARPLRYVESDYWGQGTQVTVSS | low polyreactivity
QVQLVESGGGLVQAGGSLRLICAASGIILVYYDMGWYRQAPGKEMELVDTISRGGSTNYADSVMGRFTISRDNAKNTVYLQMISLKPEDTAVNYCAAGSYSIWVHLVRYYYWGQGTQVTVSS | high polyreactivity
QVQLVESGGGLVQAGGSLRLICAASGIIYYYYAMGWYRQAPGKERELVAAINFSVGGTYYADSVKGSFTNSRDNAKNSVYLQMNSQKPEDTAVYYCAKDIVIPATYVEYDYWGQGTQVTVSS | low polyreactivity
QVQLVESGGGLVQAGGSLRLICAASGILVYNAMGWYRQAPGKERELVAAISARGGRKYYADSVKGRFTISRDNAKNTVYLQMYSLKTEDTAVYYCATLETSGVNYWGQGTQVTVSS | high polyreactivity
QVQLVESGGGLVQAGGSLRLICAASGISFDGNPMGWYRQAPGKERELVASITSDSSTNYADSVKGRFTISRDNAKNTVYLQMKSLKPEDTAVYYCAADHWIAPRRDYWGQGTQVTVSS | low polyreactivity
QVQLVESGGGLVQAGGSLRLICAASGITFDGYAMGWYRQAPGKERELVAAISWSGGRTYYADSVKGRFTISRDNAKNTVYLQMNSLKPEDTAVYYCAVYRRGVVYLLTSGVDYWGQGTQVTVSS | high polyreactivity
QVQLVESGGGLVQAGGSLRLICAASGITFRRYTMGWYREAPGKERELVATISLSDGNTYYADSVKGRFTISRDNAKYTLYLQMNSLKPEDTAVYYCNARHTWHQTYDYWGQGTIVTVSS | low polyreactivity
QVQLVESGGGLVQAGGSLRLICAASGITFSLYVKGRYSQAPGNERELVAAISTSGGSTYYADSVKGRFSLSRDNPKKSVYFQMNSLKPEDTSVYYCAAVYVLSWYVQTYDYWGQGTQVTVSS | low polyreactivity
QVQLVESGGGLVQAGGSLRLICAASGITFSTYTMGWYRQAPRKEREFVAAISSRGGSTYYADSVKGRFTISRDNAKNTAYLQMNRLIPEVTAVYYCAAALVAPFDYWVQGTQVTVSS | high polyreactivity
QVQLVESGGGLVQAGGSLRLICAASGITLPIYAMGWYRQAPGKERELVATISQRDARTYYADSVKGRFTISRDNAKNTVYLQMNSLKPEDTAVYYCARGYKKSVQRFEYWGQGTQVTVSS | high polyreactivity
QVQLVESGGGLVQAGGSLRLICAASGLIFGPYAMGWYRQAPGKEREFVAAITRSDGSTYYADSVKGRFTISRDNAKNTVFLQMNSLNPEDTAVYYCNADAGYVWFGGAYYWPYDYWRQGTQVTVSS | low polyreactivity
QVQLVESGGGLVQAGGSLRLICAASGLTFAGYAMGWYRQAPGKERELVAAITYSTGRTYYADSVKGRFTISRDNAKNTVYLQMNSLKPEDTAVYYCAALLRGQDRTMDYWGQGTQVTVSS | high polyreactivity
QVQLVESGGGLVQAGGSLRLICAASGLTFFRNAMGWYRQAPGKEREFVAGITSTDGSTYYADSVKGRFTISRDNAKNTVYLQMNSLKPEDTAVYYCAAAYRVRGRTYDSWGQGTQVTVSS | high polyreactivity
QVQLVESGGGLVQAGGSLRLICAASGLTFGSNGMGWYRQAPGKERELVAAISRGGSTSYADSVKGRFTISRDNAKNTVYLQMNSLKPEDTAVYYCNASPWGPSYFRTPYYGVRRYNYWGQGTQVTVSS | high polyreactivity
QVQLVESGGGLVQAGGSLRLICAASGLTFISYAMGWYRQAPGKERELVAAITYSGGSTYYADSVKGRFTISRDNAKNTVYLQMNSLKPEDTAVYYCAVEIPGLLWYLPTYDYWGQGTQVTVSS | low polyreactivity
QVQLVESGGGLVQAGGSLRLICAASGLTFRPNSMGWFRQAPGKERELVAAITWLGGRTYYADSVKGRFTISRDNSKNTVYLQMNSLKPEDTEVYYCSADSPYRGRQCPLNYGGDYWGQGTQVTVSS | high polyreactivity
QVQLVESGGGLVQAGGSLRLICAASGLTLYPYAMGWYRQAPGKERELVAAISGAGTRTYYADSVKGRFTISRDNAKNTVYLQMNSLKPEDTAVYYCAAVGFRPYDYWGQGTQLTVSS | high polyreactivity
QVQLVESGGGLVQAGGSLRLICAASGNIFHRYAMGWYRQAPGKERELVAAINGGGGSTYYADSVKGRFTISRDNAKNTVYLQMNSLKPEDTAVYSCAAVVQNGVHIYDYWGQGTQVTVSS | high polyreactivity
QVQLVESGGGLVQAGGSLRLICAASGNIFSYNAMGWYRQAPGKERELVAAISRRGGSTFYADSVKGRFTISRDKAKNTVYLQMNSLKPEDTAVYYCAASRNRYSYGYWGQGTQVTVSS | high polyreactivity
QVQLVESGGGLVQAGGSLRLICAASGNIFVYYALGWYRQAPGKERELVAAITSDVSTYYADSVKGRFTISRDNAKNTVYLQLNSLKPEVTAVYYCATTGYGSYVIYWGQGTQVTVSS | low polyreactivity
QVQLVESGGGLVQAGGSLRLICAASGRIFAHYARGWYRQAPGKERELVAAISWRGGRTYYADSVKGRFTISRDNAKNTVYLQMNSLKPEDTAVYYCNAVGYSQGYDYWGQGTQVTVSS | high polyreactivity
